Target: the molecule itself
Assay: cryo-EM structure

B1: Redβ177-His6 (C-terminally truncated Redβ annealase of bacteriophage λ, residues 1-177) (domain or fragment, bacteriophage lambda (phage λ), UniProt P03698 1-177, looked up)
chain: MSTALATLAGKLAERVGMDSVDPQELITTLRQTAFKGDASDAQFIALLIVANQYGLNPWTKEIYAFPDKQNGIVPVVGVDGWSRIINENQQFDGMDFEQDNESCTCRIYRKDRNHPICVTEWMDECRREPFKTREGREITGPWQSHPKRMLRHKAMIQCARLAFGFAGIYDKDEAER
**Q.** Does B1 bind?
**A.** Result: binds
